Biological target: c-fos leucine zipper helix fused via (Gly4Ser)3 linker to BLIP-D49A, fused via a similar linker to β-lactamase (tri-partite cis-inhibited β-lactamase fusion) (UniProt P01100)
Assay: cell-based or functional assay

Substance | % plating efficiency on 10 µg/ml ampicillin, 100 µM IPTG | % plating efficiency on 25 µg/ml ampicillin, 100 µM IPTG | % plating efficiency on 50 µg/ml ampicillin, 100 µM IPTG | % plating efficiency on 100 µg/ml ampicillin, 100 µM IPTG | % plating efficiency on 10 µg/ml ampicillin, 100 µM IPTG, c-jun-trx co-expressed as inhibitor | % plating efficiency on 25 µg/ml ampicillin, 100 µM IPTG, c-jun-trx co-expressed as inhibitor | % plating efficiency on 50 µg/ml ampicillin, 100 µM IPTG, c-jun-trx co-expressed as inhibitor | % plating efficiency on 100 µg/ml ampicillin, 100 µM IPTG, c-jun-trx co-expressed as inhibitor | fold reduction of plating efficiency on 100 µg/ml ampicillin by co-expressed c-jun-trx
BIP (β-lactamase-S70A) without amino-terminal c-jun helix (from UniProt P62593 24-286) | 100% | 0.7% | < 0.01% | < 0.01% |  |  |  |  | 
BLIP-F142A without amino-terminal c-jun helix (from UniProt P35804 37-201) | 100% | 4% | < 0.01% | < 0.01% |  |  |  |  | 
c-jun leucine zipper helix fused via (Gly4Ser)3 linker to BIP (β-lactamase-S70A) (from UniProt P05412 276-315; P62593 24-286) | 100% | 100% | 100% | 100% | 100% | 100% | 9% | 0.08% | > 1000 fold
c-jun leucine zipper helix fused via (Gly4Ser)3 linker to BLIP-F142A (from UniProt P05412 276-315; P35804 37-201) | 100% | 100% | 100% | 100% | 100% | 100% | 75% | 0.5% | 
